Experimental data taken from patent US9683217B2, “In vitro culture conditions for T-cell acute lymphoblastic leukemia/lymphoma” (THE UNIVERSITY OF MIAMI, priority 2013, dated 2017).

How the values were obtained:
[1] = test system: human T-ALL lymphoblasts; test: Cytokine/growth factor subtraction and IGF1R blockade, resazurin-reduction cell growth assay; format: cell-based; conditions: for importance of the supplemental cytokine for T-ALL growth: SCF, IGF-1, IL-2, IL-7 added alone or in combination, FIG. 3
Protocol: A resazurin-reduction cell growth assay was performed on (A-B) primary and (C) xenograft-expanded T-ALL. Cells were cultured and passaged as described in FIG. 1. Cytokines and growth factors were subtracted out of the complete media and cells were assayed for growth using a resazurin reduction assay. […] Significance: * p<0.05, ** p<0.01, and *** p<0.001.
Cell Titer Blue (Promega) was added to a co-culture, 5 μl/well for a 12-well plate and 1 μl/well for a 96-well plate, and allowed to incubate for 2-6 hours depending on the number and type of cells present in the well. Cultures were then analyzed using a Tecan GENios Flourometric plate reader. The plate reader was set to read from the bottom at 535 nm excitation and 590 nm emission wavelengths, at optimal gain with an integration time of 80 μs and a lag time of 0 μs. The plate was orbitally shaken in the machine for 5 sec prior to reading.
Studies were also conducted with human T-ALL primary cells (FIGS. 3A-3B) and human T-ALL cells that were previously expanded in immunodeficient NSG mice (FIG. 3C).

[2] = molecular target: IGF1R (Homo sapiens, UniProt P08069); conditions: read-out: Kd of insulin for IGF1R; cited from earlier work

Molecule | importance of the supplemental cytokine for T-ALL growth [1] | other results
IGF-1: ligand for a tyrosine kinase transmembrane receptor (CD221); recombinant supplement | may be dispensable | –
insulin: ligand for a tyrosine kinase transmembrane receptor (CD220); component of the basal medium | – | Kd [2]: 200 to 400 nM
CP-751,871: an IGF-1 receptor (IGF1R) blocking antibody, specific for human IGF1R (antibody, chains of the INN, looked up) heavy: EVQLLESGGGLVQPGGSLRLSCTASGFTFSSYAMNWVRQAPGKGLEWVSAISGSGGTTFYADSVKGRFTISRDNSRTTLYLQMNSLRAEDTAVYYCAKDLGWSDSYYYYYGMDVWGQGTTVTVSSASTKGPSVFPLAPCSRSTSESTAALGCLVKDYFPEPVTVSWNSGALTSGVHTFPAVLQSSGLYSLSSVVTVPSSNFGTQTYTCNVDHKPSNTKVDKTVERKCCVECPPCPAPPVAGPSVFLFPPKPKDTLMISRTPEVTCVVVDVSHEDPEVQFNWYVDGVEVHNAKTKPREEQFNSTFRVVSVLTVVHQDWLNGKEYKCKVSNKGLPAPIEKTISKTKGQPREPQVYTLPPSREEMTKNQVSLTCLVKGFYPSDIAVEWESNGQPENNYKTTPPMLDSDGSFFLYSKLTVDKSRWQQGNVFSCSVMHEALHNHYTQKSLSLSPG light: DIQMTQFPSSLSASVGDRVTITCRASQGIRNDLGWYQQKPGKAPKRLIYAASRLHRGVPSRFSGSGSGTEFTLTISSLQPEDFATYYCLQHNSYPCSFGQGTKLEIKRTVAAPSVFIFPPSDEQLKSGTASVVCLLNNFYPREAKVQWKVDNALQSGNSQESVTEQDSKDSTYSLSSTLTLSKADYEKHKVYACEVTHQGLSSPVTKSFNRGEC | – | effect of IGF1R blocking antibody on cell growth ([1]; T-ALL on mouse MS5-DL1 feeders): significantly impaired cell growth
IL-7: ligand for the IL-7 receptor; recombinant cytokine supplement (protein, UniProt P13232 26-177, looked up) Interleukin-7: DCDIEGKDGKQYESVLMVSIDQLLDSMKEIGSNCLNNEFNFFKRHICDANKEGMFLFRAARKLRQFLKMNSTGDFDLHLLKVSEGTTILLNCTGQVKGRKPAALGEAQPTKSLEENKSLKEQKKLNDLCFLKRLLQEIKTCWNKILMGTKEH | the most important factor | –
